Test results from PMC4512625 (2015).
Ends that are not written are not given here.

Tests used:
human SPAK 452-547(end) = human SPAK 452-547(end) (human, UniProt Q9UEW8 452-545); assay: FP
[1] = biological target: human SPAK 452-547 with L491A (human, UniProt Q9UEW8 452-545, L491A); assay: FP

B1: Lumio-Green-labelled RFXV-motif-possessing peptide derived from WNK4 (EP4543) (peptide)
peptide: CCPGCCGGGGSEEGKPQLVGRFQVTSSK
modifications: not fully specified (N-terminus); cysteine pairing not given here; also: Lumio Green fluorophore bound to the N-terminal CCPGCC linker
B1 gave a Kd (human SPAK 452-547(end)) of 0.6 µM and a Kd [1] of 88.2 µM.
